# ± gives the uncertainty stated by the source.
# Assay: self-splicing fitness, log relative to wild type (ln ratio); higher = more splicing; Tetrahymena group I intron in knt gene, E. coli kanamycin selection, DiMSum; sequences stand for … in CUCUCU…GGAGGGAAAAGUUAUCAGGCAUGCACCUGGUAGCUAGUCUUUAAACCAAUAGAUUGCAUCGGUUUAAAAGGCAAGACCGUCAAAUUGCGGGAAAGGGGUCAACAGCCGUUCAGUACCAAGUCUCAGGGGAAACUUUGAGAUGGCCUUGCAAAGGGUAUGGUAAUAAGCUGACGGACAUGGUCCUAACCACGCAGCCAAGUCCUAAGUCAACAGAUCUUCUGUUGAUAUGGAUGCAGUUCACAGACUAAAUGUCGGUCGGGGAAGAUGUAUUCUUCUCAUAAGAUAUAGUCGGACCUCUCCUUAAUGGGAGCUAGCGGAUGAAGUGAUGCAACACUGGAGCCGCUGGGAACUAAUUUGUAUGCGAAAGUAUAUUGAUUAGUUUUGGAGUACUCGUGGUCG
# Method in brief: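 Colonies from six replicate transformations of E. coli BL21(DE3) were pooled and amplicon-sequenced on an Illumina HiSeq 2500. The library placed an intron with all eight P1ex-region nucleotides randomised inside the knt kanamycin-resistance gene on pET-22b(+), and cells grew overnight at 37°C or 30°C on LB agar with or without 25 μg/mL kanamycin (plus 100 μg/mL carbenicillin, 50 μM IPTG, 0.2% rhamnose). Fitness is the DiMSum error-weighted combination of wild-type-normalised replicate fold changes, kanamycin versus none.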
sequence,measurement,setting,value
UAUAAGCAAUAUUACGUGCG,self-splicing fitness (ln),30 °C,-0.452 ± 0.11
same,self-splicing fitness (ln),37 °C,-0.00615 ± 0.17
AGCCAGCAAUAUUACGCUUC,self-splicing fitness (ln),30 °C,-3.53 ± 0.22
same,self-splicing fitness (ln),37 °C,-3.48 ± 0.29
UCGGAGCAAUAUUACGUGUU,self-splicing fitness (ln),30 °C,-3.26 ± 0.24
same,self-splicing fitness (ln),37 °C,-2.25 ± 0.26
GGUUAGCAAUAUUACGAGAG,self-splicing fitness (ln),30 °C,-2.64 ± 0.44
same,self-splicing fitness (ln),37 °C,-2.45 ± 0.39
UAGGAGCAAUAUUACGUUAC,self-splicing fitness (ln),37 °C,-2.08 ± 0.32
GUUGAGCAAUAUUACGGCCC,self-splicing fitness (ln),30 °C,-1.28 ± 0.19
same,self-splicing fitness (ln),37 °C,-0.757 ± 0.29
GUAUAGCAAUAUUACGUUCU,self-splicing fitness (ln),30 °C,-2.27 ± 0.13
same,self-splicing fitness (ln),37 °C,-0.863 ± 0.13
AAGCAGCAAUAUUACGCUCC,self-splicing fitness (ln),30 °C,-1.82 ± 0.16
same,self-splicing fitness (ln),37 °C,-0.511 ± 0.2
CCUAAGCAAUAUUACGAUGG,self-splicing fitness (ln),30 °C,-2.4 ± 0.16
same,self-splicing fitness (ln),37 °C,-2.09 ± 0.17
UAUAAGCAAUAUUACGGCGG,self-splicing fitness (ln),30 °C,0.309 ± 0.2
same,self-splicing fitness (ln),37 °C,-0.0854 ± 0.25
GUGGAGCAAUAUUACGUGUC,self-splicing fitness (ln),30 °C,-3.84 ± 0.22
same,self-splicing fitness (ln),37 °C,-2.64 ± 0.24
AGUGAGCAAUAUUACGUGCG,self-splicing fitness (ln),30 °C,-3.31 ± 0.33
same,self-splicing fitness (ln),37 °C,-2.08 ± 0.37
GUAGAGCAAUAUUACGGAGU,self-splicing fitness (ln),30 °C,-2.27 ± 0.23
same,self-splicing fitness (ln),37 °C,-1.61 ± 0.18
GGAUAGCAAUAUUACGCUUA,self-splicing fitness (ln),30 °C,-1.88 ± 0.18
same,self-splicing fitness (ln),37 °C,-0.532 ± 0.15
UGUUAGCAAUAUUACGAAGG,self-splicing fitness (ln),30 °C,-1.88 ± 0.16
same,self-splicing fitness (ln),37 °C,-2.16 ± 0.27
CCCCAGCAAUAUUACGUAUA,self-splicing fitness (ln),30 °C,-4.57 ± 0.34
same,self-splicing fitness (ln),37 °C,-3.21 ± 0.28
ACUGAGCAAUAUUACGGGGC,self-splicing fitness (ln),30 °C,-4.03 ± 0.33
same,self-splicing fitness (ln),37 °C,-1.57 ± 0.22
ACAUAGCAAUAUUACGAGGG,self-splicing fitness (ln),30 °C,-3.52 ± 0.19
same,self-splicing fitness (ln),37 °C,-3.05 ± 0.29
UUCAAGCAAUAUUACGAAGG,self-splicing fitness (ln),30 °C,-4.7 ± 0.41
same,self-splicing fitness (ln),37 °C,-2.95 ± 0.26
AGUCAGCAAUAUUACGAGCG,self-splicing fitness (ln),30 °C,-0.195 ± 0.09
same,self-splicing fitness (ln),37 °C,-0.556 ± 0.1
CGUAAGCAAUAUUACGCACC,self-splicing fitness (ln),37 °C,-0.957 ± 0.39
GAUGAGCAAUAUUACGCCUU,self-splicing fitness (ln),30 °C,-1.7 ± 0.24
ACCGAGCAAUAUUACGACUG,self-splicing fitness (ln),30 °C,-2.73 ± 0.17
same,self-splicing fitness (ln),37 °C,-1.04 ± 0.16
AUUAAGCAAUAUUACGUGCC,self-splicing fitness (ln),30 °C,-0.626 ± 0.096
same,self-splicing fitness (ln),37 °C,-1.07 ± 0.14
UACGAGCAAUAUUACGAAAA,self-splicing fitness (ln),30 °C,-3.03 ± 0.44
same,self-splicing fitness (ln),37 °C,-2.28 ± 0.39
GGCGAGCAAUAUUACGAAGG,self-splicing fitness (ln),30 °C,-3.8 ± 0.27
same,self-splicing fitness (ln),37 °C,-2.88 ± 0.4
UCUCAGCAAUAUUACGUAUC,self-splicing fitness (ln),30 °C,-3.5 ± 0.24
same,self-splicing fitness (ln),37 °C,-1.9 ± 0.25
UUCCAGCAAUAUUACGCUGG,self-splicing fitness (ln),30 °C,-3.73 ± 0.27
same,self-splicing fitness (ln),37 °C,-2.51 ± 0.31
UGGGAGCAAUAUUACGGGGU,self-splicing fitness (ln),30 °C,-1.76 ± 0.33
same,self-splicing fitness (ln),37 °C,-1.7 ± 0.35
AACGAGCAAUAUUACGCUAU,self-splicing fitness (ln),30 °C,-3.9 ± 0.24
same,self-splicing fitness (ln),37 °C,-2.18 ± 0.23
GCGCAGCAAUAUUACGGCAA,self-splicing fitness (ln),30 °C,-0.734 ± 0.14
same,self-splicing fitness (ln),37 °C,-0.814 ± 0.14
ACUGAGCAAUAUUACGCAAC,self-splicing fitness (ln),30 °C,-3.87 ± 0.31
AAUUAGCAAUAUUACGCAUA,self-splicing fitness (ln),30 °C,-1.59 ± 0.15
same,self-splicing fitness (ln),37 °C,-2.07 ± 0.15
CGCAAGCAAUAUUACGUUUU,self-splicing fitness (ln),30 °C,-4.46 ± 0.15
same,self-splicing fitness (ln),37 °C,-2.83 ± 0.16
CCAUAGCAAUAUUACGCGUC,self-splicing fitness (ln),30 °C,-3.04 ± 0.33
same,self-splicing fitness (ln),37 °C,-4.21 ± 0.46
UAGCAGCAAUAUUACGUAUU,self-splicing fitness (ln),30 °C,-3.99 ± 0.26
same,self-splicing fitness (ln),37 °C,-1.54 ± 0.19
AUCAAGCAAUAUUACGCCCU,self-splicing fitness (ln),30 °C,0.228 ± 0.14
same,self-splicing fitness (ln),37 °C,0.617 ± 0.18
UUGGAGCAAUAUUACGACAA,self-splicing fitness (ln),30 °C,-1.07 ± 0.16
same,self-splicing fitness (ln),37 °C,-0.647 ± 0.18
ACGUAGCAAUAUUACGUCGC,self-splicing fitness (ln),30 °C,-3.64 ± 0.35
same,self-splicing fitness (ln),37 °C,-1.91 ± 0.27
CUUCAGCAAUAUUACGGAUC,self-splicing fitness (ln),30 °C,-1.38 ± 0.08
same,self-splicing fitness (ln),37 °C,-0.259 ± 0.1
UUGGAGCAAUAUUACGGGUG,self-splicing fitness (ln),37 °C,-1.44 ± 0.23
CCAAAGCAAUAUUACGCUUC,self-splicing fitness (ln),30 °C,-3.37 ± 0.18
same,self-splicing fitness (ln),37 °C,-2.48 ± 0.18
AUACAGCAAUAUUACGAAAU,self-splicing fitness (ln),30 °C,-1.44 ± 0.087
same,self-splicing fitness (ln),37 °C,-0.906 ± 0.11

# — the supplement of paper PMC7877785
